Data set [1] concerns the molecule itself. Briefly: crystal structure.
Data set [2] concerns the molecule itself. Briefly: crystal structure. The source holds these as a separate data set.

Residue numbers refer to the chain shown, from its start. Numbers in names are those of the source. Like-named read-outs stand apart in the source and are kept apart here.

B1: mouse TREX1 catalytic core (residues 1-242), wild type (enzyme, UniProt Q91XB0 1-242, looked up)
chain: MGSQTLPHGHMQTLIFLDLEATGLPSSRPEVTELCLLAVHRRALENTSISQGHPPPVPRPPRVVDKLSLCIAPGKACSPGASEITGLSKAELEVQGRQRFDDNLAILLRAFLQRQPQPCCLVAHNGDRYDFPLLQTELARLSTPSPLDGTFCVDSIAALKALEQASSPSGNGSRKSYSLGSIYTRLYWQAPTDSHTAEGDVLTLLSICQWKPQALLQWVDEHARPFSTVKPMYGTPATTGTT
In the case of B1, the binding result in the data set “crystal structure [1]” is recorded as “binds”.

B2: mouse TREX1 catalytic core (residues 1-242), V201D mutant (enzyme, UniProt Q91XB0 1-242, looked up)
chain: B1 chain with V201D
For B2, the binding result in “crystal structure [2]” is recorded as “binds”.

B3: mouse TREX1 catalytic core (residues 1-242), D200N mutant (enzyme, UniProt Q91XB0 1-242, looked up)
chain: B1 chain with D200N
In the case of B3, the binding result in “crystal structure [2]” was “binds”.

B4: mouse TREX1 catalytic core (residues 1-242), D18N mutant (enzyme, UniProt Q91XB0 1-242, looked up)
chain: B1 chain with D18N
Regarding B4, in the data set “crystal structure [2]”, the binding result is “binds”.

B5: mouse TREX1 catalytic core (residues 1-242), D200H mutant (enzyme, UniProt Q91XB0 1-242, looked up)
chain: B1 chain with D200H
B5: the binding result in “crystal structure [2]” is “binds”.

The record behind these values is article PMC3253924 (DNA Repair, 2011).
